Laboratory results from the supplement of paper PMC10567573.

B1: ZNF277 (parent)
chain: ILREELQKQRLREILEQQQQERND
B2: C22orf15 (parent)
chain: RGRHEQSPTSRPRKVSSLPPRSC

Variants of: B1
Test: protein stability index of a GFP-peptide fusion (GPS, HEK-293T) (PSI 1-6); higher = more stable
Conditions: c terminus: a fixed tail appended
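Further: lentivirally expressed fusions sorted by FACS into six bins by GFP to DsRed ratio, PSI derived from sequencing read proportions per bin multiplied by bin number.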

Protein stability index of substitutions, site by site:
E16: G 3.51, S 4.04, T 4.71

Variants of: B2
Test: as above
Conditions: c terminus: native

Protein stability index: each site, then its substitutions
S22: E 2.6, L 2.35, D 1.39, H 4.07, Q 2.27, T 3.62
K14: F 3.52, G 3.13, D 3.71, T 4.73, Y 2.54, E 3.42, V 3.29, I 2.67, W 1.93
R11: T 2.51, A 2.33, W 5, S 2.31, K 3.4, N 2.35, Q 3.32
E5: L 2.09, N 2.19, F 2.19, K 2.68, P 2.93
Q6: S 1.79, V 3.92, T 1.97, W 4.38, Y 2.05
R1: W 3.77, D 2.81, Y 3.26, V 1.73
S17: I 2.3, N 2.99, Y 2.45, G 1.99, M 1.89
S10: C 2.51, V 2.85, R 1.8, P 1.61, H 1.87, A 1.64, D 1.09
H4: V 2.38, I 3.17, N 3.03, R 3.58, C 2.55, F 2.91, A 1.91, T 3.06
L18: V 3.25, M 3.65, W 3.64, I 2.76, A 1.68, T 4.07
R3: I 3.03, K 2.27, L 4.27, H 2.76
V15: Q 2.22, K 3.42, D 1.97, G 2.29, P 4.67, L 3.74, S 2.1, T 1.82, H 4.12, N 2.71
S7: F 2.94, D 2.76, R 2.69, Y 2.32, V 3.68
S16: T 2.07, M 2.63, H 2.57, Y 3.44, N 2.53, Q 2.92, V 3.6, K 2.94, P 2.77, F 3.32
T9: S 2.58, H 1.83, Y 2.35, A 3.73, C 1.52, G 2.07, R 3.3
P8: K 3.28, N 2.71, R 4.11, H 3.48, C 3.78
R21: W 4.43, K 5.13, L 3.37, A 4.53, H 4.53, Y 4.92, N 4.68, S 4.8, M 3.66, G 1.74, P 4.74, C 3.38, E 5.2
P12: W 2.55, T 2.55, Y 3.13, M 1.89, D 2.8, G 1.4
P19: Q 1.44, V 2.86, I 1.81, Y 3.14, M 1.93, F 2.19, L 3.07, D 3.23
C23: W 2.64, N 5.09, I 1.8, V 3.28, L 2.42, Y 3.2, F 3.5, H 2.29, Q 2.29
G2: F 2.04, S 3.1, C 1.57, R 2.96, D 2.01, E 1.27, M 1.9
P20: C 1.58, E 2.84, Y 2.1, D 3.82, V 2.26, S 1.99, F 4.13, I 2.72
R13: W 1.54, L 3.56, C 3.56, H 3.08, S 2.15, M 3.68, D 4.32, T 2.73, Q 1.47, E 2.88
